Columns and labels:
Format in all cases: biochemical, Mycoplana bullata
[1] = substrate: CC(=O)NCCCCCN; test: Enzyme activity on acetylpolyamine substrates, partially purified product (substrate specificity, optimum pH/temperature, Km); conditions: other: pH 7.0, Lineweaver-Burk plot
Method: (§1) Activity of the present enzyme (partially purified products) is measured according to the following procedure. That is, 0.1 ml of an enzyme solution is added to a reagent solution consisting of 1.5 ml of 0.1 M phosphate buffer (pH 7.0), 0.05 ml of 50 mM acetylpolyamine, 0.4 U of putrescine oxidase (when acetylputrescine, acetylcadaverine or acetylspermidine is used as substrate) or polyamine oxidase (when acetylspermidine or acetylspermine is used as substrate), 0.5 ml of 2.4 mM 4-aminoantipyrine, 0.5 ml of 42 mM phenol and 20 U of peroxidase. The mixture is incubated at 37° C., and the absorbance of quinoneimine pigment formed at 500 nm is measured.
(§2) In terms of the enzyme activity, the amount of enzyme that can hydrolyze 1 μmole of a substrate in one minute is defined as one unit (1 U).
(§3) The relative activities of acetylpolyamine amidohydrolases against various type of acetylpolyamine, defining the activities against acetylputrescine as 100 under a condition of pH 7.0, are as shown in Table 1 below.
(§4) Enzyme activity was measured at different pH levels ranging from 6 to 10 by using bis-Tris propane buffer solutions. The optimum pH was 9 for acetylputrescine and acetylcadaverine, and 8 for N^1 -acetylspermidine, N^8 -acetylspermidine and acetylspermine, as shown in FIG. 1.
(§5) The optimum working temperature for the present enzyme was about 50° C., when the relative activity was determined, using acetylputrescine as substrate, as shown in FIG. 4. The optimum temperatures for the other acetylpolyamine amidohydrolases were 30° to 40° C. This clearly distinguishes the present enzyme from the known enzymes.
(§6) Km values of the present enzyme and the other known enzymes for various types of acetylpolyamine at pH 7.0 were determined from the Line weaver-Burk plot [refer to J. Am. Chem. Soc., 56, 658 (1934)].

[2] = substrate: CC(=O)NCCCCNCCCN; test: as above; conditions: other: pH 7.0, Lineweaver-Burk plot
Method: as §1, §2, §3, §4, §5, §6

[3] = substrate: CC(=O)NCCCNCCCCN; test: as above; conditions: other: pH 7.0, Lineweaver-Burk plot
Method: as §1, §2, §3, §4, §5, §6

[4] = substrate: CC(=O)NCCCCCN; test: Enzyme activity on acetylpolyamine substrates, product purified to homogeneity (Method 2 / Method 3); conditions: other: pH 9.0, Lineweaver-Burk plot
Excerpt: (§7) [Method 2] (Assay when acetylputrescine, acetylcadaverine, N^1 -acetylspermidine and N^8 -acetylspermidine are used as substrate:)
(§8) The acetylpolyamine can be hydrolyzed by the acetylpolyamine amidohydrolase, as described in [Method 1], and the corresponding free polyamine thus formed is then oxidized by putrescine oxidase. Putrescine oxidase derived from Micrococcus rubens is known to have an activity upon putrescine, cadaverine and spermidine [Adachi, et al., Agric. Biol. Chem, 30, 1202 (1966)]. […] The actual analytical procedure is as described below.
(§9) The above reagents, (b) through (h), were put in a cuvette (d: 1.0 cm) and the mixture was preincubated at 37° C. for 2 minutes. The substrate solution (a) was then added, and the resulting mixture was incubated at 37° C. Absorbance at 500 nm was measured over a period of 3 to 5 minutes, and the change in absorbance per minute (ΔODsample) was determined from the linear portion of the plotted curve. For control, the same procedure as above was carried out, using distilled water as reference.
(§10) One unit of acetylpolyamine amidohydrolase is defined as its amount necessary to hydrolyze 1 μmole of acetylputrescine at 37° C. for one minute (or the amount necessary to form 0.5 μmole of quinoneimine pigment formed in the method for measuring the enzyme activity described above).
(§11) [Method 3] (Assay when acetylspermine is used as substrate:)
(§12) Acetylspermine is hydrolyzed by the action of acetylpolyamine amidohydrolase into free form of spermine. The free form of spermine can be oxidized by a polyamine oxidase derived from Aspergillus terreus to produce hydrogen peroxide. […] Thus, the enzyme activity can be measured by quantitative determination of the hydrogen peroxide according to the method described above. […]
(§13) Reagents (b) through (d) given in item (1) were put in a test tube and the mixture was preincubated at 37° C. for 2 minutes. […] A sample solution (200 μl), taken from the eluate containing free form of spermine, was mixed in a cuvette with reagents (a) through (e) given in item (2) above, the mixture was incubated at 37° C. for 10 minutes, and the absorbance at 755 nm was measured. […]
(§14) The concentration of free form of spermine in the reaction mixture can be determined from a calibration curve previously prepared on the basis of aqueous soluitons of free form of spermine with different concentrations. […]
(§15) The activities upon acetylputrescine, acetylcadaverine, N^1 -acetylspermidine and N^8 -acetylspermidine were measured by [Method 2] in a phosphate buffer (pH 9.0) at a substrate concentration of 0.833 mM, and the activity upon acetyl-spermine was measured by [Method 3] under the same conditions. […] Km values, determined from the Lineweaver-Burk plot, are also listed in the same table. […]

[5] = substrate: CC(=O)NCCCCN; test: as above; conditions: other: pH 9.0, Lineweaver-Burk plot
Excerpt: as §7, §8, §9, §10, §11, §12, §13, §14, §15

[6] = substrate: CC(=O)NCCCCNCCCN; test: as above; conditions: other: pH 9.0, Lineweaver-Burk plot
Excerpt: as §7, §8, §9, §10, §11, §12, §13, §14, §15

[7] = substrate: CC(=O)NCCCNCCCCN; test: as above; conditions: other: pH 9.0, Lineweaver-Burk plot
Excerpt: as §7, §8, §9, §10, §11, §12, §13, §14, §15

Row | Protein | Km [1] | Km [2] | Km [3] | Km [4] | Km [5] | Km [6] | Km [7]
1 | acetylpolyamine amidohydrolase (the present enzyme, partially purified product) (Mycoplana ramosa) (protein, novel acetylpolyamine amidohydrolase of the present invention accumulated within the grown cells; made in house; host or cells: Mycoplana (natural producer; cells grown in culture)) MRVIFSEDHKLRNAKTELYGGELVPPFEAPFRAEWILAAVKEAGFDDVVAPARHGLETVLKVHDAGYLNFLETAWDRWKAAGYKGEAIATSFPVRRTSPRIPTDIEGQIGYYCNAAETAISPGTWEAALSSMASAIDGADLIAAGHKAAFSLCRPPGHHAGIDMFGGYCFINNAAVAAQRLLDKGAKKIAILDVDFHHGNGTQDIFYERGDVFFASLHGDPAEAFPHFLGYAEETGKGAGAGTTANYPMGRGTPYSVWGEALTDSLKRIAAFGAEAIVVSLGVDTFEQDPISFFKLTSPDYITMGRTIAASGVPLLVVMEGGYGVPEIGLNVANVLKGVAG | 130 µM | 560 µM | 270 µM | – | – | – | –
2 | acetylpolyamine amidohydrolase (the present enzyme, product purified to homogeneity) (Mycoplana ramosa) (protein, novel acetylpolyamine amidohydrolase of the present invention accumulated within the grown cells; made in house; host or cells: Mycoplana (natural producer)) MRVIFSEDHKLRNAKTELYGGELVPPFEAPFRAEWILAAVKEAGFDDVVAPARHGLETVLKVHDAGYLNFLETAWDRWKAAGYKGEAIATSFPVRRTSPRIPTDIEGQIGYYCNAAETAISPGTWEAALSSMASAIDGADLIAAGHKAAFSLCRPPGHHAGIDMFGGYCFINNAAVAAQRLLDKGAKKIAILDVDFHHGNGTQDIFYERGDVFFASLHGDPAEAFPHFLGYAEETGKGAGAGTTANYPMGRGTPYSVWGEALTDSLKRIAAFGAEAIVVSLGVDTFEQDPISFFKLTSPDYITMGRTIAASGVPLLVVMEGGYGVPEIGLNVANVLKGVAG | – | – | – | 50 µM | 220 µM | 310 µM | 130 µM
